From a protein production outcome set (Wang et al. 2014)

Assay: label from the status in PepcDB records
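Further: failed if final PepcDB status was selected cloned or expressed and not failed if soluble or beyond.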

MAYATGITFASRSILPICSRTFLSPLRVASLLVFPEKSSATFFRRVQVPHLFSTSTTTLFSSVKCSIHSTSSPETENQAVFRPNVVDILEERGLLESITSENLRSACSDPKVAPLRVYCGFDPTAESLHLGNLLGIIVLSWFQRCGHQAVGLIGGATGRVGDPSGKSLERPELDADTLEKNIAGITKIIIKILGSNPSPGGSYVIFNNYDWWKDMTMLDFLNKVGRFARVGTMMAKESVKKRLESEQGMSYTEFTYQLLQAYDFLHLFKNEGINVQIGGSDQWGNITAGTDLIRKILQAEEAAYGLTFPLLLKNDGTKFGKSEDGAIWLSPSMLSPYKFYQYFFSVPDVDVIRFLKTLTFLSLDEIKILEDQMSKPGYVPNTAQIKLAEEVTRFVHGEEGLKEAIKATEALRPGAETKLDWNLIERIAEDIPSCSLPIDRVSGLSIVDLSVSAGLFESKSAARRMLKQGGFYMNNERVDDENKRVDEEDIVEGRGLVLSAGKKNKVVVRIS
protein production: failed

MTTMVNVDTLPEYEKSQIKRALELGTVMTVFNARKSTPERRTVQMIMETRQVAWSKTADKIEGFLDIMEIKEIRPGKNSKDFERAKAVRHKAECCFTILYGTQFVLSTLSLATDSKEDAVKWLSGLKILHQEAMSASTPTMIESWLRKQIYSVDQTRRNSISLRELKTILPLVNFKVSGIKFLKDKLVEIGAQKDELSFEQFHLFYKKLMFDQQKSILDEFKKDSSVFILGNTDRPDASAVYLQDFQRFLLHEQQELWAQDLNKVRERMTKFIDDTMRETAEPFLFVDEFLTYLFSRENSIWDEKYDAVDMQDMNNPLSHYWISSSHNTYLTGDQLRSESSTEAYIRCLRAGCRCIELDCWDGPDGKPIIYHGWTRTTKIKFDDVVQAIRDHAFVTSSFPVILSIEEHCSVEQQRHMAKVFKEVLGDMLLTKPTEASADQLPSPSQLREKIIIKHKKLGPKGDVDVNVEDKKDEHKPQGELYMWDSIDQKWTRHYCAIADAKLSFGDDIEQAVEEEPVQDTPPTELHFGEKWFHKKVESRTSAEKLLQEYCAETGAKDGTFLVRESETFPNDYTLSFWRSGRVQHCRIRSTMENGVMKYYLTDNLTFNSIYALIQHYREAHLRCAEFELRLTDPVPNPNPHESKPWYYDSLSRGEAEDMLMRIPRDGAFLIRKREGTNSYAITFRARGKVKHCRINRDGRHFVLGTSAYFESLVELVSYYEKHALYRKMRLRYPVTPELLERYNMERDINSLYDVSRMYVDPSEINPSMPQRTVKALYDYKAKRSDELTFCRGALIHNVSKEPGGWWKGDYGTRIQQYFPSNYVEDISAGDAEEMEKQIIEDNPLGSLCKGILDLNTYNVVKAPQGKNQKAFVFILEPKKQGDPPVEFATDRVEELFEWFQSIREITWKMDTKENNMKYWERNQSIAIELSDLVVYCKPTSKTKDHLENPDFREIRSFVETKADSIVRQKPVDLLRYNQKGLTRVYPKGQRVDSSNYDPFRLWLCGSQMVALNFQTPDKYMQMNHALFSLNGRTGYVLQPESMRSEKYDPMPLESQRKILMTLTVKVLGARHLPKLGRSIACPFVEVEICGAEYDSNKFKTTVVNDNGLSPVWAPTQEKVTFEIYDPNLAFLRFVVYEEDMFSDPNFLAHATYPIKGIKSGFRSVPLKNGYSEDIELASLLVFCEMRPVLESEEELYSSCRQLRRRQEELNNQLFLYDTHQNLRGANRDALVKEFNVNENQLQLYQEKCNRRLREKRVSNSRFYS
protein production: not failed

MRLVVLSDIHGNLGAFEAVLADIATQDVDDIISLGDNVGYGPDPGPVLRLLRQRGIDSVLGNHEAAIADRRRRRRFNSQSREALDLTEAWLDADGRACIASMPPVLLRHGCRFVHGMPPDSPFTYLFEFMGRRLPKVFTLFAEALCFVGHTHDLEVLRCDETGAVASVLLPTASPDVAGQMPPGPLPGPSPDATLATSPGAQPEGLTLSTASPRVTVQTLVLDAGARHLVNVGSVGQPRDGDPRAKYVVWDDTARTLTVRRVAYDVAAAVRRFAEAGVAQRYIDRLG
protein production: failed

DQEPPLYVNENDIFTSPTRIEATLNGLYAAIKNTGTKSLMGGKSYLVFDNRGDDVINISNNLVTLFNTYNMNVGITDAENADTWTYAYLAINKVNTFLQSLEGAREVAGENYDRYVQEAKFVRALAYYYLNNLYPTPYSVNPDAKSVPLRLTAEAGTENNNMPRSTVKQIYEHILSDLENISALDTEVNTYTGVTHATQAAANMLKMRVYMAMNEWDKAITAGELVTGYSLPEDVTLIYKAPYFSQESIFSLPMADTNIPNTQQSLAEYYYDGKIMLIDTKSGIMSKPDYSLATDKRIIAFKGEKDLLMKFTDAKTKLQWVPIFRYAETLLDLAECYANKAGGEATAKSLLKQVRGRSVDAATDPLNIDNLSGDALKEAIYNEKRLEFIGEGIRGIDIMRRGEHFIKVGENETINVGPSDEKYTWPIPQVELLLNKDINK
protein production: not failed

MSLTLYQKKSKMIGIIIPDLNNRFYAQIIDGIQEVIQKEGYTALISFSTNSDVKKYQNAIINFENNNVDGIITSAFTIPPNFHLNTPLVMYDSANINDDIVRIVSNNTKGGKESIKLLSKKIEKVLIQHWPLSLPTIRERIEAMTAEASKLKIDYLLEETPENNPYISAQSALNKSNQFDAIITVNDLYAAEIIKEAKRRNLKIPDDFQLVGYDNNILCGYTSPTISTIDQNPKLIGQTAAHRLLDLMSGNNSTRNSIIDVLPIKRDSTEGHHHHHH
protein production: not failed

MELSINILNIIGILLEIGVSIYIIISEKKKSKNRNSEAENDLIQQTNNIINNTQGDNASFNYTNVLMQSKYQERAYREILNDLGDKKENKQKSKYGKKCSYLRKVINIVCLGIGGFWAFYYFDLMKITSFNTYLLNVLFQTIYTLATFILIFSLSNFVKLFLIHFKEYNYIVLRKIQLFLTTLFALLGATIWLYFDWRANFRPLFNMYTESSYYTLGIIMLGLVFYVFHQMAQSFLLNNIWVPKKAVKILFVSLIFSLIASICLFI
protein production: failed

MNPALVALGLTLFAGMATGIGSAIAFFARRTNFRFLSVATGFSAGVMVYVSFVEILPKGLDSLVRSCGESWGHWLNAASFFGGMLCIGLIDAVIPAAKNPHEIHADHEIAPLHDRSAPLPDFGSLAADPRCAPTGTHDHRPPQRHLLRMGLFTALAITIHNFPEGMATFLAALESPRVGAAIAVAIALHNIPEGVSVSVPIFYATGNRRKAFALSLLSGMAEPVGAAIGYLALLLFSGGASGAIPDQVTGALFGGVAGIMVYISLDELLPASRAYGKGHDSLLGLVGGMAVMALSLLLMK
protein production: failed

MSTPIDTYWRLRLTEVAESLRANNFAVSLVDSCEEAGRVFLDDLLPASGASSVSFGGSMTLVKCGVPEALRQRADLQLLDTFDKNLSAAEMYERRRQSLLVDMFLTGTNAVTMDGKLINLDMIGNRVGAINFGPRNVVLFVGRNKVVDTVEDGMRRIKEYASPVNAIRLDKKTPCKKTAQCMDCKSPDRICNVWTITEKCFPSGRVHVILINEDAGY
protein production: failed

MGNDNVTIKLEHRVKTSADLSDYVYKYERAYTDALNNGDDIKEASESTKKELNQLIDRTDLTYSDGMYDKETGIAAIAVKDKNTGETYIAYAGTNKDADGATDFISDANIGANNSAYLKRLGDKATSFYDRVQSNGDNITVTTGHSYGDFLASRVAIELIPFFINFRKVNDSFHFCY
protein production: failed

MVGADLLCGSAWVPALWLNLCNLGVVVTLWQLLSRLPRMHRRMRSPHGVLSVFAACAAAAMVAASMAAVMAAPWFEQSLRATWLAWFSEQFSTGVLVLPVLLTAPSVRALVRGGAQPIRLAPLLVLLASLAFSIAFGGPGAIAFPIAALLWCAWTYSPFLVSLLTLTAGSTLIVAVAQNLMHFSVPQSEPGVTTLMSARLGIAMLVLGPLVVACVSQANRSLMARLAHQATVDHLTGVLTRSAFTRRANALLESRQQHAQALPLTLMMLDIDHFKSINDAHGHAVGDQVLRQFASTLQDQLHNDELIARLGGEEFVVILPGLAPERANFTAERLRRAIQDLHVTQADQRLQITVSIGVAGCDADMPAPSLDELLASADQALYRAKARGRNRVEQAEAQRLVI
protein production: failed

MENIQDSVSEYTKDSAQKIDTDALYHEQMLKALYAGFGIRFCAFIIDLLIIFGVHSLILKPIYHFTNLDSAKLWIDYFSVGHLLDALVFYLYFVLMTKYFKQTLGKMICNIRVERMDRQQLTWTDVLFREWIGRIISGVFANLPYLVTIFTKKHRGIHDYFADTVVIKNKFEKFFYLK
protein production: failed

MSLTIKNSLGQSHDYIKMFVKEGDTVVDATCGNGNDTAFLASLVGENGRVFGFDIQDKAIANTTKKLTDLNLIDRVTLIKDGHQNMDKYIDCPVKAVMFNLGYLPSGDHSISTRPETTIQALSKAMELLVTGGIITVVIYYGGDTGFEEKEKVLEFLKGVDQKKFIVQRTDFINQANCPPILVCIEKISEGHHHHHH
protein production: not failed

MSLKKALFLILDQYADWEGVYLASALNQREDWSVHTVSLDPIVSSIGGFKTSVDYIIGLEPANFNLLVMIGGDSWSNDNKKLLHFVKTAFQKNIPIAAICGAVDFLAKNGLLNNHSHTGNFVYLWKDYKQYKPISSFVEKQAVRDKNLVTANGTAPIEFTNLILEMIDFDTPENIEKMMYMNRYGFYHFCDKYGNPFVEGHHHHHH
protein production: not failed

MSFDRPEIYSAPVLQGESPNDDDNTEIIKSFKNFILEFRLDSQFIYRDQLRNNILVKNYSLTVNMEHLIGYNEDIYKKLSDEPSDIIPLFETAITQVAKRISILSRAQSANNNDKDPENTSMDTDSLLLNSLPTFQLILNSNANQIPLRDLDSEHVSKIVRLSGIIISTSVLSSRATYLSIMCRNCRHTTSITINNFNSITGNTVSLPRSCLSTIESESSMANESNIGDESTKKNCGPDPYIIIHESSKFIDQQFLKLQEIPELVPVGEMPRNLTMTCDRYLTNKVIPGTRVTIVGIYSIYNSKNGAGSGRSGGGNGGSGVAIRTPYIKILGIQSDVETSSIWNSVTMFTEEEEEEFLQLSRNPKLYEILTNSIAPSIFGNEDIKKAIVCLLMGGSKKILPDGMRLRGDINVLLLGDPGTAKSQLLKFVEKVSPIAVYTSGKGSSAAGLTASVQRDPMTREFYLEGGAMVLADGGVVCIDEFDKMRDEDRVAIHEAMEQQTISIAKAGITTVLNSRTSVLAAANPIYGRYDDLKSPGDNIDFQTTILSRFDMIFIVKDDHNEERDISIANHVINIHTGNANAMQNQQEENGSEISIEKMKRYITYCRLKCAPRLSPQAAEKLSSNFVTIRKQLLINELESTERSSIPITIRQLEAIIRITESLAKLELSPIAQERHVDEAIRLFQASTMDAASQDPIGGLNQASGTSLSEIRRFEQELKRRLPIGWSTSYQTLRREFVDTHRFSQLALDKALYALEKHETIQLRHQGQNIYRSGV
protein production: failed

DRIYLVAPEDIYLVSVEERQLSIFVDQQVYKMTGTLNSIEQKLPATLFIKTHRSFILNRTKIQEIQPWFNNTLQVILTNGSKVPVSRSYVKEFKEKLGLS
protein production: failed

MADSDSNEVLIEEIDSNDVPENELEQFQETEPLRVVDIIDCDTDGERRCIADDEEEGALIKRYVQGVQCLEFPDFCTKLEASDEDEEGNDEEPSEAAGSIEKPNTSAQAKTSQEQSTGSGRSGGGGFRKSQLSTALQGLMGEANLSFVYGRYETAERICMEIIRQNPLASEPFYTLAEIYENRDEVKFLNFSTLAAHLNPQDRDMWIRVSDLLVQQGNLARARLIYTKAIKMLPKVYQLRLRKAQLLQKMGETNASMFTYLKMLPLMPPDEWKMCLNTAKNVARYFHVLEKHSLALEAMEGAYSVCGARFTLEDINIYLELLILNKQYAKVLRCLRERTNFELENDQEESLELIYFCEIPDDYVPELRAKLCVSLIHMRAHHLLGYLIQNVQEHITLTADRVELYMDITEALMQEHKYAEAIALMSPITDGDTVECPAFVWLRQAECLRQLNRTNEAIQSYEKVVQLAPFCYDARFTLSALLKQQGRHEEAVQALEQPGEAEGQPLIARLLYERCVMLQQIGRIEEFLDVGYALLSRHSIKLYNREEMMAAANGGSAYNSESLKTIIQMRSKAVDNSAEQDLQDPAKNAASETSDLTVKDEFELFRELVRTAFKHGMHSAAEKICFAMVTTKRFTYYHHEIERIMVLTCYYNDDCAIAFSYLRELIAKQPSQTTLWNMLSLMIQKGDEVRYYRYMRRLMQRHPVDTKPMRIFQGHYHLNCASFKYALNIYMPILRENPDPLVALCIAVAFNQLSLQKKVLRKSASVAQAVAFGQRYKELRSAGHELADCAAQQEIFYNIGRIYHQANILHLAVDYYEKALAVPVHPLIAEHESTLGLQHEVAFNLHLIYRANGNKWKARQYLMRYCVV
protein production: failed
